This note sets out measurements from patent publication US20240182909, “Checkpoint Aptamers as Therapeutics for Cancer Treatment” (Ayass Bioscience LLC, published 2024).

What all share (details): label: biotin
The target in data set [1] is T1, PD-1 (UniProt Q15116 Q15116:25-170). Briefly: competition; PD-1 as soluble competitor. As for the experimental part:
(§1) FIGS. 3A, 3B, and 3C show the assessment of competitive specificity of CTLA4 aptamers, R2-13, R2-25, R2-63, R2-81, R3-20, and R3-56 to CTLA4 protein in presence of CTLA4, NKG2A, and PD-1 proteins. ELISA-based competition assay for the specificity of the binding of CTLA4 aptamers, R2-13, R2-25, R2-63, R2-81, R3-20, and R3-56. CTLA4 protein (5.0 ug/mL) was immobilized on a MaxiSorp plate. Biotinylated CTLA4 aptamers on 5.0 uM concentration were added in the presence of different concentrations of CTLA4, PD-1, or NKG2A proteins, respectively. The bound aptamer was detected using Streptavidin-HRP and assessed by ELISA. The absorbance of each well was monitored at 450 nm on an automatic microplate reader. The percent inhibition was calculated using the formula, Percent inhibition=[1−(Ainhibitor/Auninhibitor)]×100.

Data set [2] has as its target T2, CTLA4 (cytotoxic T-lymphocyte associated protein 4) (UniProt P16410 P16410:36-161). Put plainly: ELONA; 5.0 uM biotinylated aptamer on immobilised CTLA4 (5.0 ug/mL), competed with soluble protein. As for the experimental part:
as §1

Data set [3] concerns the target T3, NKG2A (UniProt P26715 P26715:94-233). Put plainly: competition; NKG2A as soluble competitor for aptamer binding to immobilised CTLA4. The protocol: as §1
Data set [4] addresses T2, CTLA4 (cytotoxic T-lymphocyte …). Put plainly: ELONA; direct and competitive ELISA; 100-fold excess unlabelled aptamer as competitor. In general terms: An ELISA detects its analyte on a solid surface through an enzyme-linked reagent.
In data set [5] the target is Bovine serum albumin (BSA) (Bos taurus, UniProt P02769 P02769:25-607). Put plainly: ELONA; BSA-coated plate.
Chain of Bovine serum albumin (BSA) (P02769 25-607, one chain of several): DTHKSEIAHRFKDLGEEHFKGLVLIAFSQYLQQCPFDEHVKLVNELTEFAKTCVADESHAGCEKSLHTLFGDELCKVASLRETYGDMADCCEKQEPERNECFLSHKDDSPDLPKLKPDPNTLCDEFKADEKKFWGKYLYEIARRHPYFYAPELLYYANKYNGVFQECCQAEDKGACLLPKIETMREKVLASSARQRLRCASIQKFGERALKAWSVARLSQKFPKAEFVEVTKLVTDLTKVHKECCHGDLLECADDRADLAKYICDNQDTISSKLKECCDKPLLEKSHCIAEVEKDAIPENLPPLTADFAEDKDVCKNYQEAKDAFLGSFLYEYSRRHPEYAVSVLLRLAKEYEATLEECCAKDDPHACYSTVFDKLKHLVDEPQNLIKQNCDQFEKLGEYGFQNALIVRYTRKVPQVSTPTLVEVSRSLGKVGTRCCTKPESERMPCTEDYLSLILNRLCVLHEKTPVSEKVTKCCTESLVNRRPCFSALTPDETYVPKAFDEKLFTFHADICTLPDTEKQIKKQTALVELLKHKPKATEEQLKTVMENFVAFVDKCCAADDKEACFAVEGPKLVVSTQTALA
For data set [6], the target named is T1, PD-1. Put plainly: competition; PD-1 as soluble competitor for aptamer binding to immobilised CTLA4. The protocol:
as §1

Data set [7] has as its target T3, NKG2A. Put plainly: ELONA; direct and competitive ELISA; 100-fold excess unlabelled aptamer as competitor. The protocol:
FIGS. 2A and 2B show aptamer, R2-13, specific binding to CTLA4 and NKG2A is determined by Direct and Competitive ELISA assay. ELISA-based competition assay for the binding of the CTLA4 aptamer, R2-13, to CTLA4 protein and to NKG2A protein. CTLA4 protein and NKG2A protein were immobilized on a MaxiSorp plate and biotinylated R2-13 on different concentrations were added in the absence and presence of 100-fold excess of non-biotinylated respective R2-13. The bound aptamer was detected using Streptavidin-HRP and assessed by ELISA. CTLA4 protein was immobilized on a MaxiSorp plate and biotinylated R2-13 on different concentrations were added in the absence and presence of 100-fold excess of non-biotinylated respective R2-13. The bound aptamer was assessed by ELISA.

Data set [8] addresses T1, PD-1. Put plainly: competition; PD-1 as soluble competitor; called R2-25 in figure legend. As for the experimental part:
as §1

The target of data set [9] is T2, CTLA4 (cytotoxic T-lymphocyte …). Briefly: ELONA; called R2-25 in figure legend; 5.0 uM biotinylated aptamer on immobilised CTLA4, competed with soluble protein. As for the experimental part: as §1

T2 sequence (P16410 36-161, one chain of several): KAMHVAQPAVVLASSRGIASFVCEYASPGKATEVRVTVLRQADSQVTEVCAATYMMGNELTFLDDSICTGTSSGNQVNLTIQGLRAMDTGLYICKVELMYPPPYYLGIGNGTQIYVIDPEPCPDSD
T3 sequence (P26715 94-233, one chain of several): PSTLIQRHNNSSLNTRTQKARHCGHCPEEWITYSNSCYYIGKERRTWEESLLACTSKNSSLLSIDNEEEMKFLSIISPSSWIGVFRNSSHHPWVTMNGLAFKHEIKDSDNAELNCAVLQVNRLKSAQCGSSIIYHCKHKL
T1 sequence (Q15116 25-170, one chain of several): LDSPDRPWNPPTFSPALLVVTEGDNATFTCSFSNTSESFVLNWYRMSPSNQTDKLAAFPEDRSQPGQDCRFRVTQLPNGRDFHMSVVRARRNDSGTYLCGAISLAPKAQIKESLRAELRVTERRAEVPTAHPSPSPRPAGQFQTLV

GACCTGCCGGCGGAGCTGCGTCCCGCTGCACCGGCAGGTC (ssDNA, deoxyuridine (dU) in place of every T) [ctla4_R3_20]: the results for the binding result (in the data set with PD-1 [1]; in [2]; in the data set with NKG2A [3]) were “no binding”, “binds” and “binds”, respectively.
As to ACTTACAACTGCGCACGCGGGACCTCCGAGAGTTGTAAGT (ssDNA, deoxyuridine (dU) in place of every T) [ctla4_R2_81], the binding result was “no binding” in the data set with PD-1 [1], “binds” in data set [2] and “binds” with NKG2A [3].
For ACACTTTTCCCCCACCTGATCCTCAGTTCCGGAAAAGTGT (ssDNA, deoxyuridine (dU) in place of every T) [ctla4_R2_13], the binding result in data set [4] was “binds”; in data set [5] it was “no binding”; with PD-1 [6], “no binding”; with NKG2A [7], “binds”.
Take TTGTTGCAGGCGACGTGCGTGGGCGCACGGCCTGCAACAA (ssDNA, deoxyuridine (dU) in place of every T) [ctla4_R3_56]: the binding result in the data set with PD-1 [1] is reported as “no binding”; in [2], “binds”; in the data set with NKG2A [3] it was “binds”.
GACTTCGCGGAGGTAAACTGCACGGGGGTGCCGCGAAGTC (ssDNA, deoxyuridine (dU) in place of every T) [ctla4_R3_25]: the binding result is given as “no binding” with PD-1 [8], “binds” in [9] and “binds” with NKG2A [3].
